Laboratory results from the Immune Epitope Database (IEDB).

How the values were obtained:
HLA-A*23:01 = experiment: IEDB peptide-MHC binding, purified MHC/competitive/radioactivity; filed as Kd, often an IC50 or EC50 that approximates it; ≥ and ≤ were set here for values at or beyond the usual limits of such assays
HLA-A*24:02 = experiment: as above
HLA-A*29:02 = experiment: as above; conditions: source organism: Mammarenavirus guanaritoense
HLA-B*08:01 = experiment: as above
HLA-A*30:01 = experiment: as above
HLA-B*07:02 = experiment: as above
HLA-B*40:01 = experiment: as above
HLA-B*46:01 = experiment: IEDB peptide-MHC binding, purified MHC/direct/fluorescence; filed as Kd, often an IC50 or EC50 that approximates it; ≥ and ≤ were set here for values at or beyond the usual limits of such assays; conditions: source organism: West Nile virus
HLA-A*26:01 = experiment: as above; conditions: source organism: Mycobacterium tuberculosis variant bovis
[1] = source organism: Dengue virus 2 Jamaica/1409/1983
[2] = source organism: Mammarenavirus guanaritoense
[3] = source organism: Dengue virus 1 Brazil/97-11/1997
[4] = source organism: Vaccinia virus WR
[5] = source organism: Dengue virus 3 Martinique/1243/1999
[6] = source organism: Dengue virus 4 Philippines/H241/1956
[7] = source organism: Dengue virus 2 Peru/IQT2913/1996

## VFGAIYGAAF
HLA-A*23:01; [1]
  Kd: 4.48 nM
HLA-A*24:02; [1]
  Kd: 323 nM

## IMRNLTNLL
HLA-A*23:01; [2]
  Kd: 6150 nM
HLA-A*24:02; [2]
  Kd: ≥ 33100 nM
HLA-A*29:02
  Kd: 305 nM

## LGLNSRSTSL
HLA-B*08:01; [3]
  Kd: 39.9 nM

## KGRISYYEM
HLA-A*30:01; [4]
  Kd: 14.4 nM

## NPLTLTAAVL
HLA-B*08:01; [3]
  Kd: 305 nM

## WYMWLGARYL
HLA-A*23:01; [5]
  Kd: 18.2 nM
HLA-A*24:02; [5]
  Kd: 17.8 nM

## APHVGLGLET
HLA-B*07:02; [3]
  Kd: 1160 nM

## AYRIKQRGIL
HLA-B*08:01; [1]
  Kd: 659 nM

## DQLSKFRTL
HLA-B*08:01; [4]
  Kd: 7.4 nM

## KREDLWCGSL
HLA-B*08:01; [6]
  Kd: 4730 nM

## RQWFFDLPLP
HLA-A*30:01; [5]
  Kd: 10800 nM

## STRVEMGEA
HLA-A*30:01; [1]
  Kd: 13.9 nM

## LEKRHVLGRL
HLA-B*08:01; [1]
  Kd: 7040 nM

## SPILSITISE
HLA-B*07:02; [1]
  Kd: 2150 nM

## KEENLVRSM
HLA-B*40:01; [3]
  Kd: 1130 nM

## LLLLVAPAY
HLA-B*46:01
  Kd: ≥ 20000 nM

## EVAGAGSGF
HLA-A*26:01
  Kd: 1.4 nM

## IGESSSNPTI
HLA-A*30:01; [6]
  Kd: 7340 nM

## TKKVRTNAA
HLA-B*08:01; [5]
  Kd: 43.6 nM

## HLIIQYPSV
HLA-A*30:01; [4]
  Kd: 164 nM

## KISISYIKL
HLA-A*30:01; [4]
  Kd: 292 nM

## DEAHFTDPSS
HLA-A*30:01; [6]
  Kd: 165 nM

## KTLAPFNFL
HLA-A*30:01; [4]
  Kd: 15 nM

## AGRLVRPFL
HLA-A*30:01; [4]
  Kd: 252 nM

## GEGVLSKADL
HLA-B*40:01; [5]
  Kd: 42.4 nM

## TEHGTIATI
HLA-B*40:01; [3]
  Kd: 80 nM

## KWKNRLNAL
HLA-B*08:01; [7]
  Kd: 157 nM

## LAVVSVSPLL
HLA-A*30:01; [7]
  Kd: 11900 nM

## RLKMDKLTL
HLA-B*08:01; [3]
  Kd: 268 nM

## PWLKNNQFCI
HLA-A*23:01; [5]
  Kd: 102 nM
HLA-A*24:02; [5]
  Kd: 224 nM

## RARYKKMLK
HLA-A*30:01; [4]
  Kd: 1.04 nM
